In the assay the target is T1, GST-PDZ domain #2 of human Zona Occludens-1 (ZO1) (human, UniProt Q07157 186-264).
T1 construct: second PDZ domain (PDZ domain #2) of human Zona Occludens-1 (ZO1), from plasmid pGEX-ZO1-2/3; also called GST-ZO1 PDZ domain #2; GST-ZO1-PDZ-2; source: E. coli BL21(DE3), purified (glutathione-Sepharose 4B); on the array: purified GST fusion protein
T1 sequence (looked up): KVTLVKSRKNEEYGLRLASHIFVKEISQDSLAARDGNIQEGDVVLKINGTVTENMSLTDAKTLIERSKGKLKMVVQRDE
In words: AlphaScreen or HTRF; GST protein pre-bound to anti-GST-terbium donor antibody, biotinylated peptide pre-bound to streptavidin-d2 acceptor; serial 1:2 dilutions of both in a matrix; 25 mM HEPES pH 7.4, 150 mM NaCl, 5 mM MgCl2, 0.005% Tween-20; 1 hr incubation; one-site saturation binding fit; Kd at 3 nM GST-ZO1 PDZ domain #2. Particulars: both partners purified. Background: In Alpha technology, singlet oxygen from a donor bead excites a nearby acceptor bead.

*: point of attachment. Biotin = O=C1N[C@H]2[C@H](CS[C@H]2CCCCC(=O)*)N1

As a reminder, the Kd is the constant that tells how readily two partners part at equilibrium.

Biotin-SRVKNLNSSRVPDLLV-OH (also called WT E peptide; Bt-WT peptide) [SARS-CoV-2 E WT peptide (Biotin-SRVKNLNSSRVPDLLV-COOH)]: the dissociation constant (Kd) stood at 29 nM.

These data come from paper PMC8189464, “SARS-CoV-2 Envelope (E) protein interacts with PDZ-domain-2 of host tight junction protein ZO1” (PLoS ONE, 2021).
